Data on one substance can be found in patent publication US9238830.

Data set [1] relates to N. meningitidis MC58 pilin (PilE, expression product of pilE, Accession No. AAF40497).
Data set [2] has as its system PilE N60A variant of N. meningitidis MC58 pilin (pPilEN60A).
For data set [3], the system named is PilE N61A variant of N. meningitidis MC58 pilin (pPilEN61A).
For data set [4], the system named is PilE S63A variant of N. meningitidis MC58 pilin (pPilES63A).
Data set [5] deals with PilE T62A variant of N. meningitidis MC58 pilin (pPilET62A).

With “PglL oligosaccharyltransferase of N. meningitidis MC58 (Accession No. AAF41024), His10-tagged (pAMF5)”, the “glycosylation of pilin in E. coli CLM24 (western blot, band shift)” value in data set [1] is “an extra band of slower electrophoretic mobility was detected with both a monoclonal anti-pilin antiserum and the C. jejuni glycan-specific R12 antiserum”. For the same substance, the “transfer of O7 polysaccharide to PilE (western blot)” value in data set [2] is “mutation of N60, N61 and T62 do not affect glycosylation”; in data set [3] it was “mutation of N60, N61 and T62 do not affect glycosylation”; in data set [4], “mutation S63A completely abolishes transfer of the polysaccharide to PilE”; in data set [5] it was “mutation of N60, N61 and T62 do not affect glycosylation”.
